The source of these data is patent US20150290345A1.

The experiment deals with Recombinant Human ErbB2/Fc Chimera (R&D Systems, Inc.) (human) (UniProt P04626). The experiment can be described thus: SPR, ProteOn XPR36; ErbB2/Fc amine-coupled on GLM chip (about 3000 RU), 1:1 Langmuir fit. A general note: SPR reads the build-up and loss of mass on a sensor chip optically.

As a reminder, the Kd is the free concentration of one partner at which half of the binding sites on the other are occupied at equilibrium, for simple one-to-one binding. Consider “L1-ICG-HSA (Affibody-immobilized ICG-HSA, SM(PEG)2 linker at 10 times the molar amount of ICG-HSA) (from UniProt P02768 25-609)”, for which the Kd worked out at 2.3 nM.
Next, “L2-ICG-HSA (Affibody-immobilized ICG-HSA, SM(PEG)2 linker at 100 times the molar amount of ICG-HSA) (from UniProt P02768 25-609)”: 0.24 nM.
